Source: patent US20140141002A1 (UNIVERSITY OF NORTH CAROLINA AT CHAPEL HILL, published 2014)
Values belong to the molecule of their own block, whether it stands above or below them.

Columns and labels:
[1] = molecular target: Src homology 2 domain containing protein tyrosine phosphatase substrate 1 (SHPS-1), endogenous in porcine aortic smooth muscle cells (porcine) (UniProt F1S887); experiment: SHPS-1 immunoprecipitated from transfected pSMCs, immunoblot for FLAG, densitometry
[2] = molecular target: T1, Src homology 2 domain containing protein tyrosine phosphatase substrate 1 (SHPS-1), endogenous in porcine … (porcine, UniProt F1S887 31-509); experiment: cell-based or functional assay
T1 sequence: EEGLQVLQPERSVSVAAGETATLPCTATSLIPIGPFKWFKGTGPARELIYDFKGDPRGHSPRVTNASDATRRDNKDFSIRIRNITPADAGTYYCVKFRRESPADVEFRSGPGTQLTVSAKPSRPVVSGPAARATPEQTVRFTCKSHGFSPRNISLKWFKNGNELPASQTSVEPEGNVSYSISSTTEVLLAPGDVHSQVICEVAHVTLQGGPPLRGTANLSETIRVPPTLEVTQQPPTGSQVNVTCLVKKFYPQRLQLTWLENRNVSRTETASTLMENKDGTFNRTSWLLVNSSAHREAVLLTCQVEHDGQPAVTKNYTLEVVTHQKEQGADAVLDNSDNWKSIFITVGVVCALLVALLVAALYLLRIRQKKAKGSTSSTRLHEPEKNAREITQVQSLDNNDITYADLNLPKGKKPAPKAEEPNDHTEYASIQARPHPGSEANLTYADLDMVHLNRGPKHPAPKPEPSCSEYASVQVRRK

[3] = molecular target: T2, integrin associated protein (IAP), endogenous in porcine aortic smooth muscle cells (porcine) (UniProt Q9GKE8); experiment: pSMCs incubated 2 h with B6H12 (4 ug/ml); SHPS-1 immunoprecipitated, immunoblot for IAP, densitometry
T2 sequence (looked up): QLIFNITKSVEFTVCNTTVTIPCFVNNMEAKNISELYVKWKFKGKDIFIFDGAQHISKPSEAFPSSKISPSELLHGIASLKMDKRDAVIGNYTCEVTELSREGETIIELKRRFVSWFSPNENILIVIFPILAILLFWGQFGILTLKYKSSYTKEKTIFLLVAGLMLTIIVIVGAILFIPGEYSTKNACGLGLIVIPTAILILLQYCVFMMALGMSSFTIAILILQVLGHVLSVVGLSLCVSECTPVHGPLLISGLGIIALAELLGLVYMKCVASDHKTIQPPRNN

% reduction in IAP association with SHPS-1 compared with cells expressing IAP fl [1]: 88%
Molecule: IAP with truncation of extracellular domain at residue 135 and containing a C-terminal FLAG epitope (IAPcyto) (from UniProt Q9GKE8 135-303) (receptor)

IGF-1 stimulated cell proliferation, cells incubated with B6H12 [2]: 1.03 fold
IGF-1 stimulated increase in SHPS-1 phosphorylation, cells pretreated with B6H12 [2]: 0.93 fold
fold increase in SHPS-1 phosphorylation in response to IGF-1, control cells (no antibody) [2]: 4.1 fold
fold increase in cell proliferation with IGF-1, no antibody [2]: 2.2 fold
B1: integrin associated protein (IAP), endogenous in porcine aortic smooth muscle cells (receptor, UniProt Q9GKE8 19-303, looked up)
chain: T2 sequence (looked up)

% reduction of the interaction between IAP and SHPS-1 [3]: 75%
B2: anti IAP monoclonal antibody B6H12 (antibody, from another filing)
scFv: EVQLVESGGDLVKPGGSLKLSCAASGFTFSGYGMSWVRQTPDKRLEWVATITSGGTYTYYPDSVKGRFTISRDNAKNTLYLQIDSLKSEDTAIYFCARSLAGNAMDYWGQGTSVTVSSGGGGSGGGGSGGGGSDIVMTQSPATLSVTPGDRVSLSCRASQTISDYLHWYQQKSHESPRLLIKFASQSISGIPSRFSGSGSGSDFTLSINSVEPEDVGVYYCQNGHGFPRTFGGGTKLEIKEQKLISEEDL
